From the DeepSol protein solubility set

Assay: soluble on expression in E. coli; label from the status in PepcDB or PDB records

Sequence | soluble on expression in E. coli
MGSDKIHHHHHHMLVEHDISDVRVGMYIIEITVPKNKFRLAKQGWLDNERIIDALKSKSVEKVLIDASKTRIVADQNATTPSPSVATPSVTTKKGTKTSSESVKPKAASVRTKYQFNQEVIKAKQVFAESKAIQAKLFHNAQRGLPLEMESVCKITSESTDLIFNNPNALACVLNIRNKDEYLLEHSVSVSILMTMFALYLKIDRDIVNQLAIGAFLHDVGKIMVPDNILNKPGKLTDDEFFVMKSHARHSVSIMRKTPGISAISMEVAGQHHEKLNGKGYPLGLKGDKISLYGRMSSICDIFDALTATRCYKQGYPQVKCFGILRKLAENNELDIDLVDKFIKCMGVYPVGAVVQLDSNRLAIVESHNIADPIRPNVRPFYRLDPKLFEKGLDVDLSSAADEQIVKCVRADDFELDMQQIIEFLAQEA | not soluble
MGSKTKKSFTVLLAFIMSFSVTGCFDKREIDDLVNPIAIGFDKGSNHSVRMTLQIAIPTKVAGGGEGGGGGGGEESVSYTTVEAPSIYSGLNMINSYVSKQLNMSQIKVLVFSEELAREGIEKYINALMRGREFRPHSYVIVARGTGNAAERYLRAVEPELESNPAKYYEMLLSAYTYTGFTANTSLTNFYKNMVSESTQPLAVLADISKFEKSDDINMDNSSYQEKGREFPLEGDFKAGDMPKVGTIKSEVMGLAVFNGSKMVGELDGEETQLQLMLEGNFGYSYVTIPDPEAEDYVVLLNIKQNRKPKRKVEIVDEKPHIKVNIYLEADILSIQSGVNYESLEKVKILEDAAEKFFEKGFLRMLKKTAKEFKSDIAGFGKEMKGKFLTWDEWTNFNWIEKYPDSEFEVDVDLKIRRPGLMLRTYPAAGTEVGEE | soluble
GPGSMFLNNNMVDDARTVQLLEEIDVQLERWGKKYGLDPSNEKQKRIPTAGGGDIKPSASSQRSHDVPNVKFVNDRTNSKVGIVETAAVAAPQGFDPSALFDRIDMLEKKLKVAEEERMILSERLFAAERIVVEVVNAQKGLQDEWAALSTQSFSISHLDDDRRTIVDSGKTSKRDCAFTSYTTQSRQSTQSGNSSVAGLSAFVSPAKEDTSRSCLQSPVRNAGSSGSVLGGEEEEDVVGATERRLFALDDLAQRLAV | not soluble
MRADGRSSCELRPVHIHPHYMKHAEGSVLIEIGDTKVICTATVEEKVPSFMRGGGKGWITAEYGMLPRATEQRNVREASKGKVSGRTMEIQRLIGRALRSVVDLEQLGERTIWIDCDVIQADGGTRTASITGAYVALVLALAKLVEEGKLEALPIRDFLAATSVGIDPEHGVILDLDYNEDARAKVDMNVVMTGAGQFVEIQGTGEEAVFSRAELDELLEAAQIGIEQLIAVQRRALGEWAARIGEKKEAAEEDTE | not soluble
MSLITCSKCSRRAVIFQRHANRHLCKRHFIEDFERRVKLAVKKYDMIQKGDRIAIALSGGKDSVTLAFVLNKLYGFRSDLEFFAITIDEGIAGYRPPTVEIARKVTEQLGMEHLVVSFEENFGMTLDEMVKRGDKKPCTYCGVFRKYLLNRTAREMGATKLATGHNLDDETQTILLNFLNADMERMARLVPQRVQEGLVVRIKPFRYVYEKEVVVYGFLHELPMDFDECPYSHFPVRAAVRDFLYDFENKYPGRKFSVMSSFEKLIPCLKEIYPQIDLNRCERCGEPTPRRICQACKLLEELRGVDEGHHHHHH | not soluble
MHRVHGTLHASFTIECRNMFKRFFLALIGVGILLSESTQASESPPYSMVLLTENFPPFNMAVDGKNFAQENNIDGIAAEVVREMFKRANIGYSMTLRFPWDRVYKLALDKPGYGVFSTTRLPEREKLFKWIGPLGSYDWIMLARGDSPITLASLEQAKDYRIGAYKGDAIGERLNAMGLNPILMLRDRDNVKKLANGQIDLWAVGDPVGRYLAKLEGVSGFKTALRFNSAELYLAVNKSTPDEIVNRLQAALDQMRTEGWVDAVKARYQLEHHHHHH | soluble
MEQINEKNFNFYNRIGLDTFQALAKDGGFSTFVDLEIAYRYIQPTENIAEIGAGYGRCIDFLLAKKHQGKIIAVEQSPKLCEHLRAVYSSTIKIVEGDIYKVSFDHQIDAALWMWSGMIDFSVEEQAAVIKHIHELLTQKGKLFIDIPRIGIKTIADHIDQQRIKLTTDFGEIECYIPLSSEVKEYADAAGFTRVDEINYETATDKKRTMYILMK | not soluble
MLETLSFTERDEFQRRNIAENIIKLLKPEADISPLVIDGAWGTGKSEFSIKLKNLIIEQETESKVVYVDAFKGDHAESPLLLITSAIASILPEEEKQNFIKRSLPAIRFGLKTVLKAGAGWFLRQEASEVAEEFQDAMKKASNAAIDGTIENILEDHMESEKNINSLKSCIEDISNKQKIVIIIDELDRCKPSFSTNIIETIKHIFDINNVFFILVTNTEQLKASINHIYGYSINSQKYLDKFIKYTITLPDTCLINGHNVCKTSVIYWDHLVGETTLLNKINSLVGSFICDLIQRTNLSLRETQTFSRNLNIFRLLNDNECKSNDPFINMIVVVAVFIHCFGDKEKLKQEITAESISYLADLLNIKEIPYSYERRSQIPEISIIFFGIIKDSITLNERFAPKSDEELKKFTNVYTDYEHLKFWSTTPRELMIKYINQMSFIQLEHHHHHH | not soluble
MMRNSHTIENFERMPDGETSSLPDITNYQESVDENPVEECSAYSDTIATCSMCLQVAPHSQFFACTYPGCGYALKQKESVKSPTLFYRKERVLCGACAFLGDHAHHKAYLLKADKLAFLTASREIGGKLEMDMEEVCRLDKSHPVDNAMIIKSGGHVELEKISVVSFLSQAKTIEEWHSRHCMVNEMLSTIKYNREQGIDYLRKQSEKVMTLLNNAAQEIKSVSRTLPKQLTNQDKPHTSFGRRQHASQKNTEWANEEYSPFSSTCSESSTSTLHMAKALQSVDDEVTGGFGGFGFGFGASAVNKSLKGQIKSENYTSIAVTRLYKMLIRTEPKETALRRAADYLNELTHSKTEKKAVIEYMEKKHSIKWPEHII | not soluble
MSLGQNRLELLLFRLDGQQLYGINVFKVREVLQCPQLTLMPKSSPVVCGVANIRGATIPILDLAMATGSGALKDKNSPFVIITEYNTKTQGFLVRSVERIVNMNWEEIHPPPKGTGRDHYLTAVTRVDNQLVEIIDVEKVLAEVAPTPEAISVGVVDVETQSKALSLRVLTVDDSSVARKQVTRCLQTVGVEVVALNDGRQALDYLRKLVDEGKKPEEEFLMMISDIEMPEMDGYTLTAEIRSDPRMQKLHIILHTSLSGVFNQAMVKKVGADDFLAKFRPDDLASRVVDRIKAADISEGHHHHHH | soluble
GMNANQFLKAVSQLQGWRECAFLLALAERSFPNYALFADAVGLKTGGKMRQLLDLAWDMLQKDVADAAIPQLLSKLETLCPNVDEYDAYGVYPAFDFCQLLEQALLNRLNPNKHRATEASQLATRTVMDFVEMSEGEGMDENELVRVFEHHPLLKDDKLFQRDTVMALYYYRTPKEAFLAELRAGAANDGVSNLGISLEG | soluble
MGSDKIHHHHHHMSLANRTTSSAYRLFNLRLESKTLLSPSLARCVFTGPEVRQMKLDAPDQRIKLLFASESGELTPMTVSDTWYQDYLALPRERRPILRTYTLRSVSRDLQQATIDFVLHGDTGPASSWAGHAKPGDALQIVAPNAEADGASGGYEWAPHDGVEQVLLIADETALPAAMGILEQLATQPSPPSVQAFFEVPKAADCVTPSDFPFAQIHWLPREETGSTIWGERLLYAVQQDVKIPASACINRDDIAQETPEDELLWERATAHRPFYAWVAGESSAIKRLRRYLLDERHLDKETINFMAYWSHR | not soluble
MGSDKIHHHHHHMDIQKIAKFFEQLQNQDFAQWEDCFGKYDVEFSDDTAETFSQSCDHVVLFNNRLSKVMLLKTSDSILSIGGFQAHNRGKIEAKNRKKTLITIPTQLANDSFGTNRYSLQDNERKPSMGGIYPCKTIFDFSILLSNEIEKSLWGIGEYVGVYFSIIDYSSKYQENFEELIAWTVEQIDELSSLLKREDNRTILRRIASLLTVKCLIMRSNGNHEIGCSIDHSFARYLENKIQIPHGKAVYLGSLLTLLFYPEWEDKGLSLEKLFKIGHYVGITMSDIQYLKTQDFSTLVKEASLLRPKRSFSLDQIQEGEAMRIKKAKERANMITQIWDR | not soluble
MGSDKIHHHHHHMDILLANPRGFCAGVNRAIQIVDRALELFGAPIYVRHEVVHNRHVVEDLRARGAIFVEELDEVPDAATVIFSAHGVPIAVREHAAARGLSVFDATCPLVTKVHMEVKKYSRDGMEMVLIGHAGHPEVEGTMGQVEEGMMYLVSNVSDVATLAPRNPDKLAYITQTTLSMDDTAEVIVALRSRFPLIEGPKKDDICYATQNRQDAVKSLAPDVDILLVVGAPNSSNSSRLAELGTRLGTQTHLIEDAQQLRREWFEGVGKIGISAGASAPESLVQEIMDTLRGWGARVPQEMPGVEEKVTFSLPLALIQAQTRREGA | not soluble
MGSDKIHHHHHHMNLSRVGKHGTGMWNYSKNIADMLHESGFLDSIICSKDHVEYFSNRYKDPKVDIIITPEIVSNTMKVSKFRPLIWLSYSYFLGCKLVLSKKKKDVALLSTTHHSIPFFKNQFITIHDLRPAFYPDSKLQEIYFSHYLPRKVKELRGVFTVSETVKNEIEEHMGVARSDIQVVYNSVDPSLRPDGTDNSEQATIKNTFLMVGASWKHKNAHSFLKNFLAYHKDNYSAVIVCGQTDYFDELKSLVATLGLENNVTFKHHISEQELSSLYKTSFALVYPSLSEGFGIPPIEAMSLSLPVIVSDIPVFKEILGEAAVYVDPNVRESWEHAVDTLKVSRENVIDTGLQRVNLYSYERCKDMLMLALNNINEKSR | not soluble
ELALWSPEVKIVELVKDCKGLGFSILDYQDPLDPTRSVIVIRSLVADGVAERSGGLLPGDRLVSVNEYCLDNTSLAEAVEILKAVPPGLVHLGIC | soluble
MQERILFGTYTKKTSQGIYQGTLDTTAKTLTNDGLLAATQNPTYLALSAKDCLYSVDKEDDEGGIAAWQIDGQTAHKLNTVVAPGTPPAYVAVDEARQLVYSANYHKGTAEVMKIAADGALTLTDTVQHSGHGPRPEQDGSHIHYTDLTPDNRLAVIDLGSDKVYVYNVSDAGQLSEQSVLTMEAGFGPRHLVFSPDGQYAFLAGELSSQIASLKYDAQTGAFTQLGIVKTIPADYTAHNGAAAIRLSHDGHFLYVSNRGYNTLAVFAVTADGHLTLIQQISTEGDFPRDFDLDPTEAFVVVVNQNTDNATLYARDLTSGKLSLLQKDVTVPEGVCVRFLEHHHHHH | soluble
MGSDKIHHHHHHMSRRLPPLNAVKAFEAAARHLSFTRAAEELFVTQAAVSHQIKALEDFLGLKLFRRKNRSLLLTEEGQSYFLDIKDIFTQLSDATDRLLARSAIGSLTVSMSPSFAIQWLVPRLAKFSEKNPDIDVRIKAVDSEEGSLTDDVDVAIYYGQGSWPGLRADKLRNEVLIPVCSPMLLNGHKPLETPADLKHHTLLHDMSRHDWQAWFRQCGVTDVNVNQGPIFSHSSLVLQAAAHGQGVALGYSVLARPDIKAGRLVVPFQEVLVSKDAYYLVCQQNHAELGKIVAFREWMLDMFAEESRSELLPA | not soluble
MGSDKIHHHHHHMDRYRGNAEAVKNLVRGHAVHRDVYVDKEVFDLEMEQLFPNSWVYVGHESQLKDPGDYITSKIGHQPILISRHKNGTIHVLHNRCPHKGVKIASEPCGNTGKFFRCPYHAWSFKTDGSLLAIPLKKGYEGTGFDNDRAKDGLPRVENVHIYRGFIFARLSDTGLSFEDYFGDSLSTIDNMVDRSPKGEVEIIAAPIRYMHTCNWKMLVDNQTDTCHPMVAHESSAGTAVSVWEREKHRFTETPMAVQLYAPFMSPYEFYESAGIRVWPNGHGHSGVSGSIHQDYDDVDGYLEMMVEAYGETRAREILGDIRHNTLYFPNVMVKGPVGILRNFIPVAVDRTLVESWAFRLVGAPDKIYERALMYNRFINAPTSIVGHDDLEMYERAQEGLLSDANEWINLRRLYEEGEPEDVTEVVNGTSERQMRNTFYAWRKFMVQGMEQKQEVSA | not soluble
